For experiment [1], the target named is T1, mouse IL-2Rβγc on murine cells (CTLL-2 T cells, primary CD4+ T cells) (mouse, UniProt P16297 27-539; P34902 23-369).
T1 sequence (looked up) 1: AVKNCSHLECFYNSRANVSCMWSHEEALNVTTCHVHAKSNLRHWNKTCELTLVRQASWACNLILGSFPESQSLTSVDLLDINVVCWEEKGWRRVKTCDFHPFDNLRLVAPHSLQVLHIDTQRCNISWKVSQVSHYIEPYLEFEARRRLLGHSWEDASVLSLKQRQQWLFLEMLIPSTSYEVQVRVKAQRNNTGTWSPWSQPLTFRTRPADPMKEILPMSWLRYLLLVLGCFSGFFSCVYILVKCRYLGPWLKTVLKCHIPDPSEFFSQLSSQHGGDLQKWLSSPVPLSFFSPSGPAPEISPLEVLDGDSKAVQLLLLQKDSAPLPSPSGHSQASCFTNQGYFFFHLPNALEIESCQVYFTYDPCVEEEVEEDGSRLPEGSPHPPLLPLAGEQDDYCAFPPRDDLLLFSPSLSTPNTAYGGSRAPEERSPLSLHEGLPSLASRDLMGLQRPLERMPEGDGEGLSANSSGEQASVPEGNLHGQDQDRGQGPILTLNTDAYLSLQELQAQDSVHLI
T1 sequence (looked up) 2: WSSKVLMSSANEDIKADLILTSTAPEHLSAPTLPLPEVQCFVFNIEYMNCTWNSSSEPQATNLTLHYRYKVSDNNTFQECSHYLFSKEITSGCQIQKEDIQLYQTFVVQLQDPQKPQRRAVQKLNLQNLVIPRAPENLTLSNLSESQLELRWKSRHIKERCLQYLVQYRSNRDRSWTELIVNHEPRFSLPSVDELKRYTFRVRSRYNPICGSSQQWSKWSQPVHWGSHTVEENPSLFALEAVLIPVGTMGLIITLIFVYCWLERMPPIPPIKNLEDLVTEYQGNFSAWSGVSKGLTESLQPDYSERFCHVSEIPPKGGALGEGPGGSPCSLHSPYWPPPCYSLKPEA
In words: cell-based or functional assay.

In experiment [2] the target is T2, mouse IL-2 receptor βγc heterodimer (mIL-2Rβγc), soluble (mouse, UniProt P16297 27-240; P34902 23-263, biotin on the C-terminal biotin acceptor peptide).
T2 construct: extracellular domain; also called MmIL-2Rβγc; mIL-2Rβνc
T2 sequence 1: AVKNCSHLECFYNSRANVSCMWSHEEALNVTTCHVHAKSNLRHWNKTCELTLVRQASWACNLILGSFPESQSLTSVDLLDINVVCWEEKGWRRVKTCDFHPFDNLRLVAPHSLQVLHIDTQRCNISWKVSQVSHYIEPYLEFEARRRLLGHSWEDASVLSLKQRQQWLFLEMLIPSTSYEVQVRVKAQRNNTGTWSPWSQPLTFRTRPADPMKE
T2 sequence 2: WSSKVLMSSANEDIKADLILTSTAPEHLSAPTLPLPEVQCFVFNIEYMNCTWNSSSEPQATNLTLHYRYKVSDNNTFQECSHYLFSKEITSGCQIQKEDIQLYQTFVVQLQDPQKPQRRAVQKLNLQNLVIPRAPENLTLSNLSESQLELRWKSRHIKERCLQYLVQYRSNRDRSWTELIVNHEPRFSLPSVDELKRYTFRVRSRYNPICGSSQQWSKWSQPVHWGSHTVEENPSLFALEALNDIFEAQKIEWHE
In words: SPR, equilibrium titration; IL-2Rγ on streptavidin chip, saturating IL-2Rβ in solution. As for the experimental part: (§1) Less than 100 response units (RU) of each ligand was immobilized to minimize mass transfer effects. […] Surface regeneration for all interactions was conducted using 15 s exposure to 1 M MgCl2 in 10 mM sodium acetate pH 5.5. SPR experiments were carried out in HBS-P+ buffer (GE Healthcare) supplemented with 0.2% bovine serum albumin (BSA) at 25° C. and all binding studies were performed at a flow rate of […] to prevent analyte rebinding. Data was visualized and processed using the Biacore T100 evaluation software version 2.0 (GE Healthcare). Equilibrium titration curve fitting and equilibrium binding dissociation (KD) value determination was implemented using GraphPad Prism assuming all binding interactions to be first order. Biolayer interferometry: binding data were collected in a Octet RED96 (ForteBio, Menlo Park, Calif.) and processed using the instrument's integrated software using a 1:1 binding model. […] Analyte proteins were diluted from concentrated stocks into binding buffer. After baseline measurement in binding buffer alone, the binding kinetics were monitored by dipping the biosensors in wells containing 100 nM of the designed protein (association) and then dipping the sensors back into baseline wells (dissociation).
A general note: SPR reads the build-up and loss of mass on a sensor chip optically.

Experiment [3] has as its target T3, mouse IL-2 receptor β subunit (mIL-2Rβ) (mouse, UniProt P16297 27-240, biotin on the C-terminal biotin acceptor peptide).
T3 construct: extracellular domain; Biotinylated form for SPR; also called MmIL-2Rβ; murine IL-2Rβ
T3 sequence: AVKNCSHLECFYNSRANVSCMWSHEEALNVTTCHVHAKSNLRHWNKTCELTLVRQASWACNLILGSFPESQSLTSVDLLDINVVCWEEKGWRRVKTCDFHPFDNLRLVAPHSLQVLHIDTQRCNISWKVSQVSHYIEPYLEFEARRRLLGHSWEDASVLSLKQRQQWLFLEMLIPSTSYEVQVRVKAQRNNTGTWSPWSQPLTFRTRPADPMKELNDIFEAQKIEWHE
In words: SPR, equilibrium titration; biotinylated IL-2Rβ on streptavidin chip. On the procedure:
as §1

As usually defined, the Kd is the concentration at which binding is half-saturated. High values mean weaker binding, low ones tighter binding.

B1: G2_neo2_40_1F_seq12 (designed binder)
chain: TEKKLQLLVEHALLDALMILNLWSESNEKLNRIITTMQSWIFTGRIDPDKAEELAKLVEELREEARERGIDTEDYVSNLKVILKELS
Turning to B1, in experiment [1], the “EC50 (CD25+) pSTAT5, murine T (CTLL-2, CD25+) cells” value (from here on “EC50 (CD25+) pSTAT5, murine T”) was found to be 1.74 nM. In addition, the Kd in experiment [2] worked out at 39.1 nM.

B2: G2_neo2_40_1F_dsn29 (designed binder)
chain: EDYYSNLKVILEELAREMERNGLSDKAEEWRQWKKIVERIRQIRSNNSDLNEAKELLNRLITYIQSQIFEISERIRETDQEKKEESWKKWQLLLEHALLDVLMLLND
notes: E. coli, N-terminal 6xHis tag and thrombin site
Turning to B2, the “EC50 (CD25+) pSTAT5, murine T” value in experiment [1] is 0.48 nM. In addition, in experiment [2], the Kd was 38.2 nM.

B3: G2_neo2_40_1F_seq27 (designed binder)
chain: TKKKAQLLAEHALLDALMLLNLSSESNERLNRIITWLQSIIFTGTYDPDMVKEAVKLADEIEDEMRKRGIDTEDYVSNLRVILQELA
Regarding B3, the “EC50 (CD25+) pSTAT5, murine T” value in experiment [1] was 0.24 nM. Moreover, the Kd in experiment [2] was 13.6 nM.

B4: G2_neo2_40_1F_dsn40 (designed binder)
chain: PEKKRQLLAEHALLDALMILNIIRTNSDNTESKLEDYISNLKVILEEIARLMESLGLSDEAEKAKEAMRLADKAGSTASEEEKKEAMNRVITWAQSWIFN
notes: as for B2
For the molecule B4, the “EC50 (CD25+) pSTAT5, murine T” value in experiment [1] turned out to be 0.5 nM. For the same molecule, in experiment [2], the Kd turned out to be 69.2 nM.

B5: G2_neo2_40_1F_dsn30 (designed binder)
chain: PEKKRQLLLEHILLDALMLLNLLETNPQNTESKFEDYISNAEVIAEELAKLMESLGLSDEAEKFKKIKQWLREVWRIWSSTNWSTLEDKARELLNRIITTIQSQIFY
notes: as for B2
For the molecule B5, in experiment [1], the “EC50 (CD25+) pSTAT5, murine T” value is 7.61 nM. The same molecule had a Kd in experiment [2] of 925 nM.

B6: G2_neo2_40_1F_seq26 (designed binder)
chain: TKKKYQLLIEHALLDALMILNLWSESNEKLNRIITTMQSWIFTGTYDPDKAEELEKLAKEIEDEARERGIDTEDYMSNLRVILKELS
Turning to B6, the “EC50 (CD25+) pSTAT5, murine T” value in experiment [1] came to 1.06 nM. Also, in experiment [2], the Kd amounted to 27.8 nM.

B7: G2_neo2_40_1F_seq04 (designed binder)
chain: TTKKIQLLVEHALLDALMILNLSSESNEKLNRIITTLQSWIFRGEIDPDRARELAKLLEEIREEMRKRGIDTEDYVSNMIVIIRELA
Regarding B7, the “EC50 (CD25+) pSTAT5, murine T” value in experiment [1] amounted to 1.95 nM. In experiment [2], this molecule displayed a Kd of 80 nM.

B8: G2_neo2_40_1F_seq16 (designed binder)
chain: TKKKIQLLVEHALLDALMILNLSSKSNEKLNRIITTMQSWIFNGTIDPDRARELAKLVEEIRDEMEKNGIDTEDYVSNLKVILEELA
Consider B8, for which the “EC50 (CD25+) pSTAT5, murine T” value in experiment [1] was 2.2 nM. Also, the equilibrium dissociation constant (Kd) in experiment [2] turned out to be 71.5 nM.

B9: G1_neo2_40_1F_H1 (designed binder)
chain: STKKTQLLIEHALLDALDMSRNLPEPNEKLSRIITTMQSWIFTGKIDGDGAQQLAKEVEELEQEHEKRGEDVEDEASNLKVILLELA
Regarding B9, the Kd in experiment [3] came out at 6800 nM; in experiment [2] it was 2650 nM. Moreover, the “EC50 (CD25+) pSTAT5, murine T” value in experiment [1] stood at 37.4 nM.

B10: G1_neo2_40_1F_H3 (designed binder)
chain: STKKTQLLIEHALLDALNMRKKLPEPNEKLSRIITDMQSWIFTGKIDGDGAQQLAKEVEELEQEHEKRGGDVEDYASNLKVILLELA
For the molecule B10, the binding result in experiment [3] is reported as “no binding”. For the same molecule, the “EC50 (CD25+) pSTAT5, murine T” value in experiment [1] is 35.2 nM. In experiment [2], the affinity, expressed as Kd, was 3830 nM.

B11: G1_neo2_40_1F_H4 (designed binder)
chain: STKKTQLLLEHALLDALHMSRELPEPNEKLNRIITDMQSWIFTGKIDGDGAQDLAKEVEELEQEHEKRGGDVEDYASNLKVILLELA
In the case of B11, the figures for the Kd in experiment [3] and in experiment [2] were 10100 nM and 392 nM, respectively. Also, the “EC50 (CD25+) pSTAT5, murine T” value in experiment [1] turned out to be 0.93 nM.

B12: G1_neo2_40_1F_H5 (designed binder)
chain: STKKTQLLIEHALLDALHMSRKLPEPNEKLSRIITTMQSWIFTGKIDGDGAQHLAKEVEELEQEHEKRGGEVEDEASNLKVILLELA
Regarding B12, the Kd in experiment [3] was determined as 45300 nM; in experiment [2] it was 5120 nM. The “EC50 (CD25+) pSTAT5, murine T” value in experiment [1] turned out to be 84.7 nM.

B13: G1_neo2_40_1F_H2 (designed binder)
chain: STKKTQLLLEHALLDALHMRRNLPEPNEKLSRIITTMQSWIFTGKIDGDGAQELAKEVEELEQEHEKRGRDVEDDASNLKVILLELA
On to B13, for which the results for the Kd in experiment [3] and in experiment [2] were 68300 nM and 964 nM, respectively. Also, the “EC50 (CD25+) pSTAT5, murine T” value in experiment [1] is 9.38 nM.

B14: G1_neo2_40_1F_M3 (designed binder)
chain: STEKTQHAAEDALRDALMLRNLLNEPNEKLARIITTMQSWQFTEKIDGDGAQELAKEVEELQQEHEVRGIDVEDYASNLKVILLQLA
On to B14, for which the Kd in experiment [3] was determined as 402 nM; in experiment [2], 64.8 nM. In addition, the “EC50 (CD25+) pSTAT5, murine T” value in experiment [1] was 80 pM.

B15: G1_neo2_40_1F_M1 (designed binder)
chain: STEKTQLAAEHALRDALMLKHLLNEPNEKLARIITTMQSWQFTGKIDGDGAQELAKEVEELQQEHEVRGIDVEDYASNLKVILLHLA
As to B15, the Kd in experiment [3] amounted to 214 nM; in experiment [2], 4.3 nM. The “EC50 (CD25+) pSTAT5, murine T” value in experiment [1] was 7 pM.

B16: G1_neo2_40_1F_M2 (designed binder)
chain: STKNTQLAAEDALLDALMLRNLLNEPNEKLARIITTMQSWQFTEKIDGDGAQELAKEVEELQQEHEERGIDVEDYASNLKVILLQLA
For the molecule B16, the dissociation constant (Kd) worked out at 2600 nM in experiment [3] and 886 nM in experiment [2]. Also, the “EC50 (CD25+) pSTAT5, murine T” value in experiment [1] worked out at 3.11 nM.

The values above are taken from US20200339648A1 (University of Washington, published 2020).
